assay: circular dichroism; settings: aqueous, '0% TFE' (buffer not stated; general: 50 mM potassium phosphate pH 7 or water); pH ns; ns °C; 25-50 uM (general text)

Compound | helicity
C=CCCCCCC[C@@](C)(NC(=O)[C@H](Cc1ccccc1)NC(=O)[C@@H](NC(=O)[C@H](CCC(N)=O)NC(=O)[C@H](CCC(N)=O)NC(=O)[C@H](CO)NC(=O)[C@H](CCC(N)=O)NC(C)=O)[C@@H](C)O)C(=O)N[C@@H](CC(N)=O)C(=O)N[C@@H](CC(C)C)C(=O)N[C@@H](Cc1c[nH]c2ccccc12)C(=O)N[C@@H](CCCNC(=N)N)C(=O)N[C@@H](CC(C)C)C(=O)N[C@@H](CC(C)C)C(=O)N[C@@](C)(CCCC=C)C(=O)N[C@@H](CCC(N)=O)C(=O)N[C@@H](CC(N)=O)C(N)=O | 55%
CC(=O)N[C@@H](CC(C)C)C(=O)N[C@H](C(=O)N[C@@H](Cc1ccccc1)C(=O)N[C@@H](CCC(=O)O)C(=O)N[C@@H](Cc1c[nH]cn1)C(=O)N[C@@H](Cc1ccc(O)cc1)C(=O)N[C@@H](Cc1c[nH]c2ccccc12)C(=O)N[C@@H](C)C(=O)N[C@@H](CCC(N)=O)C(=O)N[C@@H](CC(C)C)C(=O)N[C@H](C(=O)N[C@@H](CO)C(N)=O)[C@@H](C)O)[C@@H](C)O | -0.5%
CC(=O)N[C@@H](CC(C)C)C(=O)N[C@H](C(=O)N[C@@H](Cc1ccccc1)C(=O)N[C@]1(C)CCCCCCC=CCCC[C@@](C)(C(=O)N[C@@H](CO)C(=O)N[C@@H](C)C(N)=O)NC(=O)[C@H](CC(C)C)NC(=O)[C@H](CCC(N)=O)NC(=O)[C@H](C)NC(=O)[C@H](Cc2c[nH]c3ccccc23)NC(=O)[C@H](Cc2ccc(O)cc2)NC(=O)[C@H](Cc2c[nH]cn2)NC1=O)[C@@H](C)O | 80.8%
CC(=O)N[C@@H](CC(C)C)C(=O)N[C@H](C(=O)N[C@@H](Cc1ccccc1)C(=O)N[C@]1(C)CCCCCCCCCCC[C@@](C)(C(=O)N[C@@H](CO)C(=O)N[C@@H](C)C(N)=O)NC(=O)[C@H](CC(C)C)NC(=O)[C@H](CCC(N)=O)NC(=O)[C@H](C)NC(=O)[C@H](Cc2c[nH]c3ccccc23)NC(=O)[C@H](Cc2ccc(O)cc2)NC(=O)[C@H](Cc2c[nH]cn2)NC1=O)[C@@H](C)O | 78.4%
CC(=O)N[C@@H](CC(C)C)C(=O)N[C@H](C(=O)N[C@@H](Cc1ccccc1)C(=O)N[C@]1(C)CCCCCCCCCCC[C@@](C)(C(=O)N[C@@H](CO)C(N)=O)NC(=O)[C@H](CC(C)C)NC(=O)[C@H](CCC(N)=O)NC(=O)[C@H](C)NC(=O)[C@H](Cc2c[nH]c3cc(Cl)ccc23)NC(=O)[C@H](Cc2ccc(O)cc2)NC(=O)[C@H](Cc2c[nH]cn2)NC1=O)[C@@H](C)O | 69.5%
CC(=O)N[C@@H](CC(C)C)C(=O)N[C@H](C(=O)N[C@@H](Cc1ccccc1)C(=O)N[C@]1(C)CCCCCCCCCCC[C@@](C)(C(=O)N[C@@H](CO)C(N)=O)NC(=O)[C@H](CC(C)C)NC(=O)[C@H](CCC(N)=O)NC(=O)[C@H](CCCNC(=N)N)NC(=O)[C@H](Cc2c[nH]c3cc(Cl)ccc23)NC(=O)[C@H](Cc2ccc(O)cc2)NC(=O)[C@H](Cc2c[nH]cn2)NC1=O)[C@@H](C)O | 74.2%
CC(=O)N[C@@H](CCC(N)=O)C(=O)N[C@@H](CO)C(=O)N[C@@H](CCC(N)=O)C(=O)N[C@@H](CCC(N)=O)C(=O)N[C@H](C(=O)N[C@@H](Cc1ccccc1)C(=O)N[C@@H]1CCCCCCC=CCCC[C@@H](C(=O)N[C@@H](CCC(N)=O)C(=O)N[C@@H](CC(N)=O)C(N)=O)NC(=O)[C@H](CC(C)C)NC(=O)[C@H](CC(C)C)NC(=O)[C@H](CCCNC(=N)N)NC(=O)[C@H](Cc2c[nH]c3ccccc23)NC(=O)[C@H](CC(C)C)NC(=O)[C@H](CC(N)=O)NC1=O)[C@@H](C)O | 50.5%
CC(=O)N[C@@H](CCC(N)=O)C(=O)N[C@@H](CO)C(=O)N[C@@H](CCC(N)=O)C(=O)N[C@@H](CCC(N)=O)C(=O)N[C@H](C(=O)N[C@@H](Cc1ccccc1)C(=O)N[C@]1(C)CCCCCCCCCCC[C@@](C)(C(=O)N[C@@H](CCC(N)=O)C(=O)N[C@@H](CC(N)=O)C(N)=O)NC(=O)[C@H](CC(C)C)NC(=O)[C@H](CC(C)C)NC(=O)[C@H](CCCNC(=N)N)NC(=O)[C@H](Cc2c[nH]c3cc(Cl)ccc23)NC(=O)[C@H](CC(C)C)NC(=O)[C@H](CC(N)=O)NC1=O)[C@@H](C)O | 92.4%
CC(=O)N[C@@H](CCC(N)=O)C(=O)N[C@@H](CO)C(=O)N[C@@H](CCC(N)=O)C(=O)N[C@@H](CCC(N)=O)C(=O)N[C@H](C(=O)N[C@@H](Cc1ccccc1)C(=O)N[C@]1(C)CCCCCCCCCCC[C@@](C)(C(=O)N[C@@H](CCC(N)=O)C(=O)N[C@@H](CC(N)=O)C(N)=O)NC(=O)[C@H](CC(C)C)NC(=O)[C@H](CC(C)C)NC(=O)[C@H](CCCNC(=N)N)NC(=O)[C@](C)(Cc2c[nH]c3cc(Cl)ccc23)NC(=O)[C@H](CC(C)C)NC(=O)[C@H](CC(N)=O)NC1=O)[C@@H](C)O | 62.4%
CC(=O)N[C@@H](CCC(N)=O)C(=O)N[C@@H](CO)C(=O)N[C@@]1(C)CCCCCCCCC2(CCCCCCCCCCC[C@@](C)(C(=O)N[C@@H](CCC(N)=O)C(=O)N[C@@H](CC(N)=O)C(N)=O)NC(=O)[C@H](CC(C)C)NC(=O)[C@H](CC(C)C)NC(=O)[C@H](CCCNC(=N)N)NC(=O)[C@H](Cc3c[nH]c4ccccc34)NC(=O)[C@H](CC(C)C)NC(=O)[C@H](CC(N)=O)NC2=O)NC(=O)[C@H](Cc2ccccc2)NC(=O)[C@H]([C@@H](C)O)NC(=O)[C@H](CCC(N)=O)NC1=O (some centres unmarked) | 96%
CC(=O)N[C@@H](CCC(N)=O)C(=O)N[C@@H](CO)C(=O)N[C@]1(C)CCCC=CCCCC2(CCCC=CCCC[C@@](C)(C(=O)N[C@@H](CC(C)C)C(=O)N[C@@H](CC(C)C)C(=O)NC(C)(C)C(=O)N[C@@H](CCC(N)=O)C(=O)N[C@@H](CC(N)=O)C(N)=O)NC(=O)[C@H](Cc3c[nH]c4ccccc34)NC(=O)[C@H](CC(C)C)NC(=O)[C@H](CC(N)=O)NC2=O)NC(=O)[C@H](Cc2ccccc2)NC(=O)[C@H]([C@@H](C)O)NC(=O)[C@H](CCC(N)=O)NC1=O (some centres unmarked) | 0%
CC(=O)N[C@]1(C)CCCCCCCCCCC[C@@](C)(C(=O)N[C@@H](CC(C)C)C(=O)N[C@@H](Cc2c[nH]c3ccccc23)C(=O)N[C@@H](CCCNC(=N)N)C(=O)N[C@@H](CC(C)C)C(=O)N[C@@H](CC(C)C)C(=O)NC(C)(C)C(=O)N[C@@H](CCC(N)=O)C(=O)N[C@@H](CC(N)=O)C(N)=O)NC(=O)[C@H](CO)NC(=O)[C@H](Cc2ccccc2)NC(=O)[C@H]([C@@H](C)O)NC(=O)[C@H](CCC(N)=O)NC(=O)[C@H](CCC(N)=O)NC(=O)[C@H](CO)NC1=O | 66.7%
CCCC[C@@H]1NC(=O)[C@H](CCCNC(=N)N)NC(=O)[C@H](Cc2c[nH]c3ccccc23)NC(=O)[C@H](CC(C)C)NC(=O)[C@H](CC(N)=O)NC(=O)[C@](C)(NC(=O)[C@H](Cc2ccccc2)NC(=O)[C@@H](NC(=O)[C@H](CCC(N)=O)NC(=O)[C@H](CCC(N)=O)NC(=O)[C@H](CO)NC(=O)[C@H](CCC(N)=O)NC(C)=O)[C@@H](C)O)CCCCCCCCCCC[C@@](C)(C(=O)N[C@@H](CCC(N)=O)C(=O)N[C@@H](CC(N)=O)C(N)=O)NC(=O)[C@H](CC(C)C)NC1=O | 84.7%
CCCC[C@H](NC(C)=O)C(=O)N1CCC[C@H]1C(=O)N[C@@H](CCCNC(=N)N)C(=O)N[C@@H](Cc1ccccc1)C(=O)N[C@]1(C)CCCCCCCCCCC[C@@](C)(C(=O)N[C@@H](CCC(N)=O)C(=O)N[C@@H](CC(N)=O)C(N)=O)NC(=O)[C@H](CC(C)C)NC(=O)[C@H](CC(C)C)NC(=O)[C@H](CCCNC(=N)N)NC(=O)[C@H](Cc2c[nH]c3ccccc23)NC(=O)[C@H](Cc2ccc(O)cc2)NC(=O)[C@H](CC(N)=O)NC1=O | 61.6%

Source: patent US9957299B2, “Peptidomimetic macrocycles” (AILERON THERAPEUTICS, INC., priority 2010, dated 2018)
